The source of these data is paper PMC11116822, “Nuclear factor Y-A3b binds to the SINGLE FLOWER TRUSS promoter and regulates flowering time in tomato”.

Series [1] addresses T1, SlNF-YA3b (MBP-6His fusion) (Solanum lycopersicum (tomato) cv. AC).
T1 chain: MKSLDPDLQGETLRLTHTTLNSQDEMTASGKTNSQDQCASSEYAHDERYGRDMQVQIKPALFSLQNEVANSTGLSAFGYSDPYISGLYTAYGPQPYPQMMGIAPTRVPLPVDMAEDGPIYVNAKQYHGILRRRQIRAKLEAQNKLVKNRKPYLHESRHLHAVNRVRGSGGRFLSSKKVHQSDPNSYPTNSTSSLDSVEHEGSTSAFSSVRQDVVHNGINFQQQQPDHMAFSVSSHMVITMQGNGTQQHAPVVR
The series can be described thus: competition; 10- and 30-fold excess vs FAM box 7; EMSA on non-denaturing gels, FAM probes; buffer, salt, pH and temperature not stated. The settings on record: protein: recombinant; tags: MBP; 6xHis; blunt. A general note: Mobility shift assays separate free from complexed probe on a gel.

Series [2] has as its target T1, SlNF-YA3b (MBP-6His fusion). Nature of the series: EMSA; EMSA on non-denaturing gels, FAM probes; buffer, salt, pH and temperature not stated. The note with it: protein: recombinant; tags: MBP; 6xHis; label: FAM on forward strand (probe); blunt.
Series [3] has the same target. Nature of the series: competition; 10- and 30-fold excess vs FAM box 3; EMSA on non-denaturing gels, FAM probes; buffer, salt, pH and temperature not stated. The settings on record: protein: recombinant; tags: MBP; 6xHis; blunt.
For series [4] the target is unchanged. Nature of the series: competition; 10- and 30-fold excess vs FAM box 5; EMSA on non-denaturing gels, FAM probes; buffer, salt, pH and temperature not stated. The settings on record: protein: recombinant; tags: MBP; 6xHis; blunt.
For series [5] the target is unchanged. The series can be described thus: competition; 10- and 30-fold excess vs FAM box 4; EMSA on non-denaturing gels, FAM probes; buffer, salt, pH and temperature not stated. The note with it: protein: recombinant; tags: MBP; 6xHis; blunt.
The target is the same in series [6]. The series can be described thus: competition; 10- and 30-fold excess vs FAM box 2; EMSA on non-denaturing gels, FAM probes; buffer, salt, pH and temperature not stated. The note with it: protein: recombinant; tags: MBP; 6xHis; blunt.
For series [7] the target is unchanged. The series can be described thus: competition; 10- and 30-fold excess vs FAM box 1; EMSA on non-denaturing gels, FAM probes; buffer, salt, pH and temperature not stated. The note with it: protein: recombinant; tags: MBP; 6xHis; blunt.
For series [8] the target is unchanged. Nature of the series: competition; 10- and 30-fold excess vs FAM box 6; EMSA on non-denaturing gels, FAM probes; buffer, salt, pH and temperature not stated. The settings on record: protein: recombinant; tags: MBP; 6xHis; blunt.

Positions count from the first letter of the chain named.

B1: SFT-box7-m (dsDNA)
DNA 1: AGTTAGATCAGGCCGGCGGGGGAGACCTAATCCATAGTG
DNA 2: CACTATGGATTAGGTCTCCCCCGCCGGCCTGATCTAACT
As to B1, the binding result in series [1] is listed as “no binding”.

B2: SFT-box3 (dsDNA)
DNA 1: GTTAGATTGAAGTTAGTAATTGGTTATCCCACCGATGGATT
DNA 2: AATCCATCGGTGGGATAACCAATTACTAACTTCAATCTAAC
B2: in series [2], the binding result is “binds”.

B3: SFT-box3-m (dsDNA)
DNA 1: B2 DNA 1 with A19T, G22T, G23T
DNA 2: B2 DNA 2 with C19A, C20A, T23A
On to B3, for which, in series [3], the binding result is “no binding”.

B4: SFT-box5-m (dsDNA)
DNA 1: ATGTTTTATCATAAAAATAAAAAATGTTTTTAATATTAATC
DNA 2: GATTAATATTAAAAACATTTTTTATTTTTATGATAAAACAT
Regarding B4, the binding result in series [4] is given as “no binding”.

B5: SFT-box5 (dsDNA)
DNA 1: B4 DNA 1 with A20T, A21T, A22G, A23G
DNA 2: B4 DNA 2 with T19C, T20C, T21A, T22A
Take B5: in series [2], the binding result is given as “binds”.

B6: SFT-box4-m (dsDNA)
DNA 1: TTAAATTATGTTTTCTTGGGGGGGGTTTCATTCCTTATTTA
DNA 2: TAAATAAGGAATGAAACCCCCCCCAAGAAAACATAATTTAA
As to B6, the binding result in series [5] was “no binding”.

B7: SFT-box4 (dsDNA)
DNA 1: B6 DNA 1 with G19A, G20T, G21T
DNA 2: B6 DNA 2 with C21A, C22A, C23T
Regarding B7, the binding result in series [2] is given as “binds”.

B8: SFT-box2 (dsDNA)
DNA 1: TAGGGGTAAGGGTAAAATATTGGAAAAATCATTTAAATAT
DNA 2: ATATTTAAATGATTTTTCCAATATTTTACCCTTACCCCTA
For B8, the binding result in series [2] is “binds”.

B9: SFT-box2-m (dsDNA)
DNA 1: B8 DNA 1 with T20A, T21A, G22A, G23A
DNA 2: B8 DNA 2 with C18T, C19T, A20T, A21T
On to B9, for which the binding result in series [6] is recorded as “no binding”.

B10: SFT-box7 (dsDNA)
DNA 1: AGTTAGATCAGGCCGGCCCAATAGACCTAATCCATAGTG
DNA 2: CACTATGGATTAGGTCTATTGGGCCGGCCTGATCTAACT
For B10, the binding result in series [2] was “binds”.

B11: SFT-box1 (dsDNA)
DNA 1: GAATCAAGACACGATGATATTGGGACGCTTTGGGGTGTAT
DNA 2: ATACACCCCAAAGCGTCCCAATATCATCGTGTCTTGATTC
With B11, the binding result in series [2] is listed as “binds”.

B12: SFT-box1-m (dsDNA)
DNA 1: B11 DNA 1 with A19T, G22T, G23T
DNA 2: B11 DNA 2 with C18A, C19A, T22A
Turning to B12, the binding result in series [7] is recorded as “no binding”.

B13: SFT-box6-m (dsDNA)
DNA 1: CCCTTCACCTTAGCATCAAAAAATAGGATTTACTACGAG
DNA 2: CTCGTAGTAAATCCTATTTTTTGATGCTAAGGTGAAGGG
Regarding B13, in series [8], the binding result is “no binding”.

B14: SFT-box6 (dsDNA)
DNA 1: B13 DNA 1 with A19C, A20C, A23T
DNA 2: B13 DNA 2 with T17A, T20G, T21G
Regarding B14, the binding result in series [2] is “binds”.
